The values below come from the supplement of paper PMC9112550, “Optimization of the antimicrobial peptide Bac7 by deep mutational scanning” (BMC Biology, 2022).

The data set has as its system Escherichia coli TOP10. The data set can be described thus: shrunken log2 fold change of peptide-encoding DNA abundance (4.5 h post-induction vs induction); higher = less antimicrobial activity (less host growth inhibition). Conditions: time post-induction: 4.5 h; library: site-saturation at positions 5, 18, 19, 20.
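Note: peptides expressed intracellularly from a pBAD plasmid library in pooled LB shake-flask culture, induced with 0.3% L-arabinose, DNA abundance read by NGS, three biological replicates, DESeq2 with apeglm shrinkage.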

In the case of RRIRKRPPRLPRPRPRPFRKPRP, the “shrunken log2 fold change” value is -0.304.
In the case of RRIRQRPPRLPRPRPRPGTMPRP it was 0.00897; in that of RRIRSRPPRLPRPRPRPWLCPRP, -0.0753.
RRIRQRPPRLPRPRPRPGDIPRP: the “shrunken log2 fold change” value is -0.0112.
Consider RRIRVRPPRLPRPRPRPARYPRP, for which the “shrunken log2 fold change” value was 0.0291.
The same measure for RRIRIRPPRLPRPRPRPEKVPRP: -0.13; for RRIRHRPPRLPRPRPRPFHTPRP: -0.0888; for RRIRRRPPRLPRPRPRPFVYPRP: -0.0209.
In the case of RRIRRRPPRLPRPRPRPWKRPRP it was -0.0441.
On to RRIRCRPPRLPRPRPRPAEVPRP, for which the “shrunken log2 fold change” value is -0.106.
The same measure for RRIRRRPPRLPRPRPRPIWFPRP: 0.0342; for RRIRARPPRLPRPRPRPEQEPRP: 0.00961.
On to RRIRIRPPRLPRPRPRPLGGPRP, for which the “shrunken log2 fold change” value was determined as 0.00908.
The same measure for RRIRFRPPRLPRPRPRPDLEPRP: -0.0811; for RRIRRRPPRLPRPRPRPTHCPRP: 0.562.
RRIRQRPPRLPRPRPRPQATPRP: the “shrunken log2 fold change” value is -0.00963.
In the case of RRIRHRPPRLPRPRPRPDAEPRP it was 0.205.
Turning to RRIRKRPPRLPRPRPRPPRIPRP, the “shrunken log2 fold change” value was 0.323.
In the case of RRIRWRPPRLPRPRPRPCLFPRP, the “shrunken log2 fold change” value was -0.00127.
In the case of RRIRERPPRLPRPRPRPVKIPRP it was -0.181.
Consider RRIRDRPPRLPRPRPRPFHRPRP, for which the “shrunken log2 fold change” value was -0.261.
Consider RRIRNRPPRLPRPRPRPFWDPRP, for which the “shrunken log2 fold change” value was -0.0775.
In the case of RRIRERPPRLPRPRPRPQFQPRP it was -0.0426; in that of RRIRPRPPRLPRPRPRPYGQPRP, -0.169; in that of RRIRNRPPRLPRPRPRPWPIPRP, -0.0597.
The same measure for RRIRDRPPRLPRPRPRPQHRPRP: -0.198; for RRIRFRPPRLPRPRPRPWVYPRP: -0.327.
The same measure for RRIRARPPRLPRPRPRPSKTPRP: 0.314; for RRIRERPPRLPRPRPRPGMYPRP: -0.0383; for RRIRSRPPRLPRPRPRPRRLPRP: 0.193.
Take RRIRIRPPRLPRPRPRPYNEPRP: the “shrunken log2 fold change” value is -0.0675.
In the case of RRIRCRPPRLPRPRPRPEAWPRP it was 0.976; in that of RRIRERPPRLPRPRPRPWYGPRP, -1.02.
The same measure for RRIRWRPPRLPRPRPRPLMYPRP: -0.0465.
As for RRIRWRPPRLPRPRPRPQIAPRP, the “shrunken log2 fold change” value is 0.141.
In the case of RRIRNRPPRLPRPRPRPTHEPRP it was 0.0695.
In the case of RRIRPRPPRLPRPRPRPTWPPRP it was 0.47.
In the case of RRIRDRPPRLPRPRPRPSWAPRP, the “shrunken log2 fold change” value was -0.102.
The same measure for RRIRTRPPRLPRPRPRPQVNPRP: -0.587.
As for RRIRDRPPRLPRPRPRPQVYPRP, the “shrunken log2 fold change” value stood at 0.175.
On to RRIRQRPPRLPRPRPRPKWNPRP, for which the “shrunken log2 fold change” value is -0.216.
Turning to RRIRYRPPRLPRPRPRPLVNPRP, the “shrunken log2 fold change” value was -1.09.
For the sequence RRIRFRPPRLPRPRPRPGPFPRP, the “shrunken log2 fold change” value was found to be 0.14.
In the case of RRIRYRPPRLPRPRPRPWPGPRP it was -0.15; in that of RRIRNRPPRLPRPRPRPVIRPRP, -0.164.
Consider RRIRGRPPRLPRPRPRPPNMPRP, for which the “shrunken log2 fold change” value was 0.0204.
As for RRIRSRPPRLPRPRPRPYIAPRP, the “shrunken log2 fold change” value was -0.917.
In the case of RRIRIRPPRLPRPRPRPKCQPRP it was -0.00871; in that of RRIRLRPPRLPRPRPRPGLSPRP, 0.00141.
Take RRIRWRPPRLPRPRPRPMWIPRP: the “shrunken log2 fold change” value is 0.135.
The same measure for RRIRGRPPRLPRPRPRPPAFPRP: 1.09; for RRIRKRPPRLPRPRPRPDYLPRP: 0.111; for RRIRSRPPRLPRPRPRPWEFPRP: 0.236.
Turning to RRIRRRPPRLPRPRPRPSLNPRP, the “shrunken log2 fold change” value worked out at 0.00555.
On to RRIRERPPRLPRPRPRPDYHPRP, for which the “shrunken log2 fold change” value is -0.486.
The same measure for RRIRGRPPRLPRPRPRPITFPRP: -0.148.
As for RRIRMRPPRLPRPRPRPKVCPRP, the “shrunken log2 fold change” value stood at 0.0971.
In the case of RRIRDRPPRLPRPRPRPRAAPRP, the “shrunken log2 fold change” value stood at 0.609.
As for RRIRTRPPRLPRPRPRPQALPRP, the “shrunken log2 fold change” value was found to be 0.231.
For the sequence RRIRERPPRLPRPRPRPRRSPRP, the “shrunken log2 fold change” value was -0.021.
Consider RRIRARPPRLPRPRPRPFGIPRP, for which the “shrunken log2 fold change” value came out at 0.0411.
In the case of RRIRWRPPRLPRPRPRPKSRPRP, the “shrunken log2 fold change” value was -0.0202.
The same measure for RRIRERPPRLPRPRPRPQIRPRP: 0.0242; for RRIRDRPPRLPRPRPRPGKWPRP: -0.00965.
In the case of RRIRLRPPRLPRPRPRPGRVPRP it was 0.242.
The same measure for RRIRVRPPRLPRPRPRPFTEPRP: -0.423; for RRIRRRPPRLPRPRPRPCQWPRP: 0.107; for RRIRHRPPRLPRPRPRPFTHPRP: -0.0608.
For RRIRHRPPRLPRPRPRPMPLPRP, the “shrunken log2 fold change” value was -0.0217.
The same measure for RRIRWRPPRLPRPRPRPWPFPRP: 0.481.
In the case of RRIRDRPPRLPRPRPRPHHQPRP it was -0.0302; in that of RRIRNRPPRLPRPRPRPSHGPRP, 0.108; in that of RRIRARPPRLPRPRPRPPVTPRP, 0.354.
Turning to RRIRSRPPRLPRPRPRPAQSPRP, the “shrunken log2 fold change” value turned out to be 0.234.
The same measure for RRIRLRPPRLPRPRPRPKAFPRP: 0.0112; for RRIRGRPPRLPRPRPRPHNIPRP: -0.386.
For the sequence RRIRSRPPRLPRPRPRPSLAPRP, the “shrunken log2 fold change” value came out at 0.164.
Take RRIRCRPPRLPRPRPRPDQFPRP: the “shrunken log2 fold change” value was found to be 0.07.
Consider RRIRIRPPRLPRPRPRPPPVPRP, for which the “shrunken log2 fold change” value amounted to 0.414.
Consider RRIRNRPPRLPRPRPRPPRRPRP, for which the “shrunken log2 fold change” value came out at 0.518.
The same measure for RRIRRRPPRLPRPRPRPEKYPRP: 0.135.
In the case of RRIRDRPPRLPRPRPRPGEPPRP, the “shrunken log2 fold change” value was 0.613.
The same measure for RRIRTRPPRLPRPRPRPDSSPRP: -0.00751; for RRIRYRPPRLPRPRPRPAHHPRP: -0.602; for RRIRWRPPRLPRPRPRPNAEPRP: 0.181.
The same measure for RRIRCRPPRLPRPRPRPMTMPRP: -0.27; for RRIRKRPPRLPRPRPRPVNTPRP: -0.207.
RRIRMRPPRLPRPRPRPVTFPRP: the “shrunken log2 fold change” value was -0.0159.
As for RRIRDRPPRLPRPRPRPYVGPRP, the “shrunken log2 fold change” value is -0.0122.
In the case of RRIRPRPPRLPRPRPRPNQWPRP it was 0.139; in that of RRIRTRPPRLPRPRPRPPSPPRP, 0.236.
